Data set [1] concerns the molecule itself. Nature of the data set: cryo-EM structure; single-particle analysis of in vitro reconstituted GroEL–GroES–MetK complexes with ADP–BeFx (non-cycling); control of GroEL and GroES treated identically without MetK.
Data set [2] has as its target T1, GroEL (E. coli, UniProt P0A6F5 1-548).
T1 construct: GroEL, E. coli chaperonin, 57 kDa subunit; two heptameric rings; One molecule for endogenous, pBAD33-expressed and purified GroEL (same untagged protein, same host); also called GroEL 14-mer; GroEL14; source: E. coli BL21(DE3) Gold: endogenous or overexpressed from pBAD33 (araBAD promoter), in cells or in lysate; copies: 14
The experiment in a line: cryo-electron tomography with subtomogram averaging; in vitro reconstituted, isolated GroEL–GroES–MetK complexes with ADP–BeFx, imaged with the parameters of the in situ tomography. Conditions: both partners purified.

Data set [3] deals with T1, GroEL. The experiment in a line: co-IP; GroEL antibody on protein A Sepharose; lysate of MetK-overexpressing cells with apyrase (25 U/ml) to arrest the GroEL cycle; HMK buffer, 1 h; immunoblot for GroEL and MetK and LC-MS/MS (iBAQ). Particulars: partners not purified.
Data set [4] concerns the target T1, GroEL. Nature of the data set: SEC; Superdex 200 3.2/300 GL; complex formed from 4 uM MetK heat denatured (60 °C, 15 min) with 1 uM GroEL 14-mer in buffer A (20 mM MOPS-NaOH pH 7.4, 200 mM KCl, 10 mM MgCl2, 5 mM DTT) with 30 mM NaF and 5 mM BeSO4, then 2 uM GroES 7-mer and 1 mM ATP; fractions by SDS-PAGE and mass spectrometry (iBAQ). Conditions: both partners purified. (In general: In gel filtration, larger molecules generally elute earlier.)

T1 sequence (P0A6F5 whole entry): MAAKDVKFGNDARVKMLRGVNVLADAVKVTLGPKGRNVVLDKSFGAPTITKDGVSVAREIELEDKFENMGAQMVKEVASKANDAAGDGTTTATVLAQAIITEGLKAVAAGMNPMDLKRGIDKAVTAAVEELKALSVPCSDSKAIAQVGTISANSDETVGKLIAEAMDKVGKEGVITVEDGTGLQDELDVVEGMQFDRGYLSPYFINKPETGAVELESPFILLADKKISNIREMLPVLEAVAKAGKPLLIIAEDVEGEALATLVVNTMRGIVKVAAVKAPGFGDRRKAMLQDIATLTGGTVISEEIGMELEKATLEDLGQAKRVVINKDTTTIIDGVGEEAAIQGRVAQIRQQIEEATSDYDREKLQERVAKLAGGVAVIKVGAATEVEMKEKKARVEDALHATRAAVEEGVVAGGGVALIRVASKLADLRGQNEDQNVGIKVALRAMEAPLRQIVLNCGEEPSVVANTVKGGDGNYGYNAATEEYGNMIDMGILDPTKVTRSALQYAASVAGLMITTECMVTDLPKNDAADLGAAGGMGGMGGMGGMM

B1: GroES (complex, E. coli, UniProt P0A6F9 1-97, looked up)
chain: MNIRPLHDRVIVKRKEVETKSAGGIVLTGSAAAKSTRGEVLAVGNGRILENGEVKPLDVKVGDIVIFNDGYGVKSEKIDNEEVLIMSESDILAIVEA
notes: GroES, E. coli co-chaperonin, heptamer of 10 kDa subunits; also called GroES 7-mer; lid-shaped cofactor GroES; source: E. coli BL21(DE3) Gold: endogenous or overexpressed from pBAD33 (with groEL, araBAD promoter), in cells
Turning to B1, the binding result in data set [1] is listed as “binds”.

B2: S-adenosylmethionine synthase (MetK) (enzyme, E. coli)
chain: MAKHLFTSESVSEGHPDKIADQISDAVLDAILEQDPKARVACETYVKTGMVLVGGEITTSAWVDIEEITRNTVREIGYVHSDMGFDANSCAVLSAIGKQSPDINQGVDRADPLEQGAGDQGLMFGYATNETDVLMPAPITYAHRLVQRQAEVRKNGTLPWLRPDAKSQVTFQYDDGKIVGIDAVVLSTQHSEEIDQKSLQEAVMEEIIKPILPAEWLTSATKFFINPTGRFVIGGPMGDCGLTGRKIIVDTYGGMARHGGGAFSGKDPSKVDRSAAYAARYVAKNIVAAGLADRCEIQVSYAIGVAEPTSIMVETFGTEKVPSEQLTLLVREFFDLRPYGLIQMLDLLHPIYKETAAYGHFGREHFPWEKTDKAQLLRDAAGLK
notes: S-adenosylmethionine synthase MetK, obligate GroEL substrate of E. coli; 379 C-alpha atoms compared with PDB 7LOO; core loop residues 97-111; In vitro the protein was heat denatured (60 °C, 15 min) in the presence of GroEL before encapsulation; it stands in the chaperonin as a single subunit; also called fMetK (folded MetK); source: E. coli BL21(DE3): overexpressed from pET22b (T7 promoter, …)
By stoichiometry N is commonly meant a count of units in the complex or per binding partner. Consider B2, for which the “percent of chambers with strong density of folded MetK (class I)” value in data set [2] was about 40%. Moreover, the “stoichiometry N” value in data set [3] is ~1.3 MetK molecules per GroEL complex; in data set [4] it was about 1.2 MetK per GroEL 14-mer.

The values above are taken from publication PMC11390479, “Visualizing chaperonin function in situ by cryo-electron tomography” (Nature, 2024).
